Targets include HLA-A*02:02; HLA-A*02:03; HLA-A*02:06.
Common to all, as to experiment: IEDB peptide-MHC binding, purified MHC/competitive/radioactivity; filed as Kd, often an IC50 or EC50 that approximates it; ≥ and ≤ were set here for values at or beyond the usual limits of such assays
A further experiment deals with HLA-A*11:01. Conditions: source organism: Vaccinia virus WR.
The target in the next experiment is HLA-A*03:01. Conditions: source organism: Vaccinia virus WR.
The target of another experiment is HLA-A*33:01. Conditions: source organism: Vaccinia virus WR.
In another experiment the target is HLA-A*31:01. To be noted: source organism: Vaccinia virus WR.
For the next experiment, the target named is HLA-A*68:01. To be noted: source organism: Vaccinia virus WR.
Setting [1] is: source organism: SARS coronavirus Tor2.
[2] abbreviates: source organism: Vaccinia virus WR.
The mark [3] stands for this setting: source organism: Mammarenavirus brazilense.
The mark [4] stands for this setting: source organism: Lymphocytic choriomeningitis virus (strain Armstrong).
The mark [5] stands for this setting: source organism: Mammarenavirus guanaritoense.

The results in this text go back to the Immune Epitope Database (IEDB).

Consider KLIEYSDFA, for which the equilibrium dissociation constant (Kd) in the experiment with HLA-A*02:02 (setting [1]) stood at 0.0948 nM; with HLA-A*02:03 (setting [1]), 0.534 nM; with HLA-A*02:06 (setting [1]), 0.705 nM.

As to KQYDSTDFKM, the results for the Kd with HLA-A*02:02 (setting [2]), with HLA-A*02:03 (setting [2]) and in the experiment with HLA-A*02:06 (setting [2]) were 8.38 nM, 3270 nM and 107 nM, respectively.

In the case of LLEQLIENI, the Kd in the experiment with HLA-A*02:02 (setting [2]) was determined as 702 nM; with HLA-A*02:03 (setting [2]) it was 1960 nM; with HLA-A*02:06 (setting [2]), 539 nM.

For the sequence LLPDALLFTL, the Kd with HLA-A*02:02 (setting [3]) came out at 4.72 nM; in the experiment with HLA-A*02:03 (setting [3]), 732 nM; in the experiment with HLA-A*02:06 (setting [3]), 78.9 nM.

LNVSYLCHL: the Kd with HLA-A*02:02 (setting [4]) is 296 nM; with HLA-A*02:03 (setting [4]), 7100 nM; with HLA-A*02:06 (setting [4]), 13600 nM.

As to MSPALFFTFL, the Kd worked out at 546 nM in the experiment with HLA-A*02:02 (setting [3]), 7630 nM in the experiment with HLA-A*02:03 (setting [3]) and 834 nM with HLA-A*02:06 (setting [3]).

With NITRLEVIGL, the dissociation constant (Kd) was 907 nM with HLA-A*02:02 (setting [2]), 95.1 nM with HLA-A*02:03 (setting [2]) and 197 nM in the experiment with HLA-A*02:06 (setting [2]).

For NMCNSDVSV, the Kd with HLA-A*02:02 (setting [2]) amounted to 80 nM; in the experiment with HLA-A*02:03 (setting [2]) it was 30.3 nM; in the experiment with HLA-A*02:06 (setting [2]), 97 nM.

NQILEENVEV: the Kd in the experiment with HLA-A*02:06 (source organism: Dengue virus 2 Jamaica/1409/1983) is 56.1 nM.

For NTTTFITVLT, the dissociation constant (Kd) with HLA-A*02:02 (setting [2]) came out at 1960 nM; with HLA-A*02:03 (setting [2]), 596 nM; with HLA-A*02:06 (setting [2]) it was 600 nM.

NVDIIDLLL: the Kd with HLA-A*02:02 (setting [2]) was 461 nM; with HLA-A*02:03 (setting [2]), 4090 nM; in the experiment with HLA-A*02:06 (setting [2]), 22.3 nM.

With PMIIGEPIIV, the Kd with HLA-A*02:02 (setting [2]) is no less than 70000 nM; with HLA-A*02:03 (setting [2]) it was 8840 nM; in the experiment with HLA-A*02:06 (setting [2]) it was no less than 69800 nM.

Consider PVETLFGSYI, for which the figures for the Kd with HLA-A*02:02 (setting [2]), with HLA-A*02:03 (setting [2]) and with HLA-A*02:06 (setting [2]) were 13700 nM, 11800 nM and no less than 69800 nM, respectively.

As to QLLKILDNL, the Kd in the experiment with HLA-A*02:02 (setting [2]) came to 227 nM; in the experiment with HLA-A*02:03 (setting [2]), 319 nM; with HLA-A*02:06 (setting [2]), 135 nM.

As for RLEVIGLTT, the dissociation constant Kd was no less than 20000 nM in the experiment with HLA-A*02:02 (setting [2]), 13900 nM in the experiment with HLA-A*02:03 (setting [2]) and no less than 49800 nM with HLA-A*02:06 (setting [2]).

In the case of RLRQDTEDIV, the Kd with HLA-A*02:02 (setting [2]) came to 134 nM; with HLA-A*02:03 (setting [2]) it was 284 nM; with HLA-A*02:06 (setting [2]) it was 7490 nM.

For the sequence RTWKVLSIM, the Kd with HLA-A*02:02 (setting [2]) is 19100 nM; with HLA-A*02:03 (setting [2]) it was 2630 nM; in the experiment with HLA-A*02:06 (setting [2]) it was no less than 34000 nM.

Consider RVLYDEFVT, for which the results for the Kd with HLA-A*02:02 (setting [2]), in the experiment with HLA-A*02:03 (setting [2]) and in the experiment with HLA-A*02:06 (setting [2]) were 2170 nM, 1410 nM and 1720 nM, respectively.

As for SALMTLDDLA, the Kd is 210 nM with HLA-A*02:02 (setting [2]), 2320 nM with HLA-A*02:03 (setting [2]) and 193 nM with HLA-A*02:06 (setting [2]).

Take SLPSYAAYA: the Kd stood at 6.68 nM in the experiment with HLA-A*02:02 (setting [1]), 2.56 nM in the experiment with HLA-A*02:03 (setting [1]) and 8.72 nM with HLA-A*02:06 (setting [1]).

Regarding SMSQELAEL, the Kd with HLA-A*02:02 (setting [2]) was 3.98 nM; in the experiment with HLA-A*02:03 (setting [2]), 7.66 nM; with HLA-A*02:06 (setting [2]), 186 nM.

Regarding STKADAVVA, the figures for the Kd with HLA-A*02:02 (setting [2]), with HLA-A*02:03 (setting [2]) and with HLA-A*02:06 (setting [2]) were 8190 nM, 4950 nM and 16200 nM, respectively.

Consider SVKYYGRST, for which the Kd with HLA-A*02:02 (setting [2]) amounted to 6790 nM; with HLA-A*02:03 (setting [2]), 1160 nM; with HLA-A*02:06 (setting [2]), 19400 nM.

For TISWMMKLGI, the Kd with HLA-A*02:02 (setting [2]) is 7840 nM; with HLA-A*02:03 (setting [2]), 972 nM; with HLA-A*02:06 (setting [2]), 2780 nM.

For the sequence TLNTLITLIL, the results for the Kd with HLA-A*02:02 (setting [2]), in the experiment with HLA-A*02:03 (setting [2]) and with HLA-A*02:06 (setting [2]) were 150 nM, 7.09 nM and 826 nM, respectively.

For TLVDLCFWS, the Kd was 57.9 nM in the experiment with HLA-A*02:02 (setting [5]), 523 nM in the experiment with HLA-A*02:03 (setting [5]) and 134 nM with HLA-A*02:06 (setting [5]).

Take TTNNLLEQL: the equilibrium dissociation constant (Kd) with HLA-A*02:02 (setting [2]) was 122 nM; with HLA-A*02:03 (setting [2]), 1420 nM; with HLA-A*02:06 (setting [2]), 3040 nM.

On to TVGMLIYSM, for which the Kd with HLA-A*02:02 (setting [2]) is 490 nM; with HLA-A*02:03 (setting [2]) it was 6090 nM; with HLA-A*02:06 (setting [2]) it was 9170 nM.

VLEKKVCAI: the Kd with HLA-A*02:02 (setting [2]) is 14400 nM; with HLA-A*02:03 (setting [2]), 2310 nM; with HLA-A*02:06 (setting [2]), 3390 nM.

As to VLLPFYETL, the Kd with HLA-A*02:02 (setting [2]) worked out at 4060 nM; in the experiment with HLA-A*02:03 (setting [2]), 267 nM; with HLA-A*02:06 (setting [2]) it was 218 nM.

VQLSNNKYVL: the dissociation constant (Kd) with HLA-A*02:02 (setting [2]) turned out to be 288 nM; with HLA-A*02:03 (setting [2]), 9490 nM; with HLA-A*02:06 (setting [2]), 170 nM.

In the case of VTFINDYANL, the equilibrium dissociation constant (Kd) in the experiment with HLA-A*02:02 (setting [2]) was determined as 99.1 nM; with HLA-A*02:03 (setting [2]), 247 nM; with HLA-A*02:06 (setting [2]), 148 nM.

For VTKSSSWKDV, the Kd with HLA-A*02:02 (setting [2]) was no less than 70000 nM; in the experiment with HLA-A*02:03 (setting [2]), no less than 41900 nM; in the experiment with HLA-A*02:06 (setting [2]) it was no less than 69800 nM.

In the case of VVIGLLFMI, in the experiment with HLA-A*02:06 (source organism: Dengue virus 1 Brazil/97-11/1997), the Kd was determined as 5.61 nM.

As to YTYDRVDIY, the Kd with HLA-A*11:01 was 0.341 nM; in the experiment with HLA-A*03:01 it was 741 nM; with HLA-A*33:01, no less than 36600 nM; with HLA-A*31:01 it was 9370 nM; with HLA-A*68:01, 1.91 nM.
